Experimental data taken from patent publication US20240226186A9, “OBLIGATE ANAEROBIC HUMAN INTESTINAL MICROBE FOR CANCER TREATMENT, AND USE THEREOF” (HEALTHBIOME, priority 2019, published 2024).

Key:
[1] = system: colorectal cancer cells (CT26); experiment: MTT assay, proliferation of colorectal cancer cells; format: cell-based; details: CT26, 0.1, 1.0 or 10 μg/mL for 48 hours, 2-DG 20 mM (FIG. 18A)
Protocol: (§1) Then, it was investigated whether the purified HB03-01 and HB03-03 proteins affect the proliferation or apoptosis of cancer cells. Specifically, after treating colorectal cancer cells (CT26) and lung cancer cells (LLC) with the HB03-derived protein HB03-01 at concentrations of 0 (untreated), 0.1, 1.0 or 10 μg/mL or with HB03-03 at 10 μg/mL, the proliferation of the cancer cells and the activity of the apoptosis-regulating enzyme caspase-3 were investigated.
(§2) MTT assay was conducted to investigate the change in the proliferation of the cancer cells. The cancer cells were cultured using a DMEM medium (Gibco, USA) for 24 hours on a 96-well plate at 1×10^4 cells/well in a 5% CO2 incubator at 37° C. A low-glucose condition was maintained by treating with 2-deoxyglucose (2-DG) to a final concentration of 20 mM. After culturing for 6 hours, HB03-01 was treated at a concentration of 0, 0.1, 1.0 or 10 μg/mL for 48 hours. After adding 10 μL of an MTT solution, the cells were cultured further for 2 hours. After removing the medium from the 96-well plate and dissolving a formazan formed on the plate with 100 μL of DMSO, absorbance was measured at 540 nm using an ELISA reader (Model 680, BioRad). A control group was treated with 0 μg/mL HB03-01 (untreated), and the measurement values were represented as relative cell survivability (%) with respect to the number of cells in the control group as 100%.

lung cancer cells (LLC) = experiment: MTT assay, proliferation of lung cancer cells; format: cell-based; details: LLC, 0.1, 1.0 or 10 μg/mL for 48 hours, 2-DG 20 mM (FIG. 18B)
Protocol: as §1, §2

[2] = system: MC38 colorectal cancer cells; experiment: Tumor growth in mice inoculated with MC38 colorectal cancer cells; format: in vivo, C57BL/6 JAX mice; details: administered 5 times until day 16 with 2-day intervals from day 5 (FIG. 19)
Excerpt: 6- to 8-week old male C57BL/6J JAX and BALB/c mice purchased from Daehan Biolink were used. Each of the mice was housed in a cage and was maintained under a controlled environment (12-hour light/dark cycle, light-off at 7 pm) with free access to feed and water ad libitum. Tumorigenesis was induced by injecting pancreatic cancer cells (Panc02), melanoma cells (B16F10), glioma cells (GL261), sarcoma cells (MCA205) colorectal cancer cells (MC38) and lung cancer cells (LLC) to the C57BL/6 JAX mice and injecting colorectal cancer cells (CT26) to the BALB/c mice. Specifically, 1×10^7 cells/100 μL of Panc02, 2×10^5 cells/100 μL of B16F10, 5×10^5 cells/100 μL of GL261, 5×10^5 cells/100 μL of MCA205, 5×10^5 cells/100 μL of MC38, 5×10^5 cells/100 μL of LLC or 5×10^5 cells/100 μL of CT26 tumor cells were subcutaneously injected to the mice. Tumor size was measured with 2- or 3-day intervals until the end of the experiment, and tumor volume was calculated as length×width^2×0.5. In order to investigate the change in tumor size and immune environment owing to HB03 and its fragment, intestinal contents were recovered, immersed in liquid nitrogen and then kept at −80° C. All animal experimental procedures were approved by the Animal Care and Use Committee of Korea Research Institute of Bioscience and Biotechnology. […]

caspase-3 = experiment: Western blot of caspase-3 activity level in lung cancer cells; format: cell-based; details: LLC lung cancer cells, 10 μg/mL for 24 hours (FIG. 18C)
Protocol: as §1
Western blot was conducted to investigate the activity level of caspase-3. Lung cancer cells treated with 10 μg/mL of HB03-01 or HB03-03 for 24 hours were homogenized in an ice-cold 20 mM Tris-HCl buffer (pH 7.5) containing 2 mM EDTA (ethylenediaminetetraacetic acid), 0.5 mM EGTA (ethylene glycol tetraacetic acid), 300 mM sucrose and 2 mM PMSF (phenylmethylsulfonyl fluoride). After electrophoresing 50 μg of proteins on 15% SDS-PAGE (sodium dodecyl sulfate-polyacrylamide gel electrophoresis) gel, they were transferred onto a PVDF (polyvinylidene fluoride) membrane using a semidry transfer system (Hoefer, Holliston, MA, USA). Non-specific binding was blocked by incubating with 5% non-fat dry milk. […] The immune complexes were detected using an ECL detection kit (Amersham Biosciences Korea, Seoul, Korea) and auto-radiographed onto an X-ray film. […]

B1: HB03-01: protein produced by the HB03 strain, SEQ ID NO 1, overexpressed in E. coli and purified (protein)
chain: IVNSKRSELDKKISIAAKEIKSANAAEITPSRSSNEELEKELNRYAKAVGSLETAYKPFLASSALVPTTPTAFQNELKTFRDSLISSCKKKNILITDTSSWLGFQVYSTQAPSVQAASTLGFELKAINSLVNKLAECGLSKFIKVYRPQLPIETPANNPEESDEADQAPWTPMPLEIAFQGDRESVLKAMNAITGMQDYLFTVNSIRIRNERMMPPPIANPAAAKPAAAQPATGAASLTPADEATAPAAPAIQQVIKPYMGKEQVFVQVSLNLVHFNQPKAQEPSED
modifications: HB03-01
- Proliferation of colorectal cancer cells (relative cell survivability) [1]: significantly decreased
- Proliferation of lung cancer cells (relative cell survivability) (lung cancer cells (LLC)): significantly decreased
- Tumor growth vs control group, post-treatment with HB03-derived protein [2]: significantly inhibit tumor growth
- Activation of apoptosis-regulating enzyme (caspase-3) (caspase-3): activated

B2: HB03-03: protein produced by the HB03 strain, SEQ ID NO 2, overexpressed in E. coli and purified (protein)
chain: IPESSVPAAAVSSVKGAYPNAGPIEWDSEMHGMERIYEAEFRINGFQFDVKIAPDGKIVRIKEEIAASSLPEAVRASVLKRYPGCRIKEAEKITEGELVRYKVEVADSRDDYDVLIAPDGNILHVDR
modifications: HB03-03
- Tumor growth vs control group, post-treatment with HB03-derived protein [2]: significantly inhibit tumor growth
- Activation of apoptosis-regulating enzyme (caspase-3) (caspase-3): activated
